System: MS2 coat protein
Assay: apparent KD of MS2 coat protein; higher = weaker reporter binding
Details: Eterna round: R107
Summary of the method: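 The buffer was 100 mM Tris-HCl pH 7.5 with 80 mM KCl and 4 mM MgCl2, used without or with constant ligand. In it, RNA switches transcribed on-chip from Illumina sequencing clusters were titrated with SNAP-549-labelled MS2 coat protein in twofold steps from 0.7 or 1.5 nM to 3 µM. Apparent KD for each design is the median of its normalised cluster binding-curve fits.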

[1] = input ligand: theophylline 20 uM
[2] = input ligand: theophylline 2 mM
[3] = input ligand: tryptophan 2.4 mM

Row | Sequence | apparent KD of MS2 coat protein (input ligand: arginine 13.2 mM) | apparent KD of MS2 coat protein [1] | apparent KD of MS2 coat protein [2] | apparent KD of MS2 coat protein (input ligand: none) | apparent KD of MS2 coat protein [3]
1 | GUAUUACGGACGGCCGCCACUGUGGGACAUGAGGAUCACCCAUGUGGCGCUACUUACAAGUGCGACAGGACCGGGUCAUGGUUUG [theeternabot_sameState_MS2_Trp_B_1] | 152 nM | 732 nM | 783 nM |  | 
2 | GGUCGCCAACAUGGGUGGGCGACCCUGGAAGGAGCGAGCGAGAGCUCAGGUAGGUCGCCAGAACAUGAGGAUCACCCAUGUAAUA [(A)''-(M)'-(A)'(Arg1)-(Arg2)-(M1)-(M2)_Design13] | 70.8 nM | 162 nM | 70.3 nM | 44.5 nM | 59.6 nM
3 | ACAUGAGGAUCACCCAUGUAACCUAGGGAAGGAGCGGUGUAAGAGCCAGGUAGGUCGCCCACAUGUGGAUCACCCAUGGUGAGGG [#24 Same State - Arginine A] | 22.7 nM | 44.4 nM | 39.2 nM | 29 nM | 26.6 nM
4 | GCCAUCGGCGGAAGCCGAUGGUAUACGGAAGGAGCGCACGAAAGUGCAGGUAGGUCGCUGAACAUGAGGAUCACCCAUGUAAUAA [#28 Same State - Arginine A] | 17.6 nM | 36.4 nM | 24.1 nM | 18.8 nM | 20.3 nM
5 | UCUGGUAUGACGGCCGCCACUAGAUCGUGAGAAGCCUGCAUACAUGAGGAUCACCCAUGUCUCACUAGGACCGGGUCAUUCCAAU [theeternabot_sameState_MS2_Trp_B_5] | 53.8 nM | 105 nM | 119 nM |  | 
6 | GUAGCGACGACGGCCGCCACUCACAGGUGAGGGUAGACCAACCUUCACAUGAGGAUCACCCAUGUGAGGACCGGGUUGUCGGUAC [#11 Exclusion Tryptophan B] | 50.9 nM | 95.5 nM | 111 nM | 134 nM | 146 nM
7 | GACGAUAUGAUACGUCAGCAAUCCUCGAAACGAGGACCGGUACGGCCGCCACUCGAGUGAUACACAUGAGGAUCACCCAUGUACC [Tryp A Ex t3] | 30.9 nM | 49.6 nM | 49.4 nM |  | 
8 | AAAAUAAACUCGGCCGCCACUCAACGGACCCUUUGGACAUGAGGAUCACCCAUGUAUUUUGGAAAGAGGACCGGGAGAAAUAAAA [Exclusion - Trytophan B] | 8.32 nM | 17.8 nM | 11.7 nM | 8.35 nM | 12.2 nM
9 | AACAGACGAGACGAUACCAGUCUCUUAGCGCACAUGAGGAUCACCCAUGUUGGCAAGCUCGACCCUUGGCAGCGUACCUUUGAUC [theeternabot_sameState_MS2_Theo_B_6] | 23.8 nM | 34.3 nM |  |  | 24.3 nM
10 | UGUAUGUGAUCUGAUACCAGAGUGAAUAAACCUGAGGAUCACCCUGGUAGGCGAAAGCCACUCCCUUGGCAGCAGAUCGCAUACU | 102 nM | 112 nM | 38.6 nM | 139 nM | 141 nM
11 | AUUUAUUGUCGUGAUACCAGACAUACAUGAGGAUCACCCAUGUUAAGUAACUUUUUUCAGGUCCCUUGGCAGCACUUUUUAAUUA [JR_Nu_SSTheophyB_Sub019] | 21.1 nM | 23.8 nM |  |  | 18.1 nM
12 | UUCACAUGGUAUGAAUAUACAUACAAGAAACGAGGACCGGUACGGCCGCCACUCGUGCCGGAAACAUGAGGAUCACCCAUGUGUU [AK1.2 Exclusion TrypA mod IceBolt] | 21.5 nM | 41.2 nM | 41.2 nM |  | 
13 | ACGAUAGGACCUGAGGAUCACCCAGGUGAUACCAGCCUGGAAACAGGCCCUUGGCAGCACCAAUACUCCAAUAACCUAUCGAAUA [TheoAX 11 #MicroSwitchBubble #AlternativeMS2] | 96.8 nM | 442 nM | 372 nM | 220 nM | 213 nM
14 | UAUAUAUAUCACGAACUGUGGUGUAUGUCUCGAGGACCGGUACGGCCGCCACUCGCGCGGCCUCACAUGAGGAUCACCCAUGUUG [XTryp A #6] | 27.9 nM | 73.7 nM | 78.5 nM |  | 
15 | GUAGCGACGGCGGCCGCCACUCACAGGUGAGGGUAGACCAACCUUCACAUGAGGAUCACCCAUGUGAGGACCGGGCUGUCGCUAC [#13 Exclusion Tryptophan B] | 36.3 nM | 117 nM | 122 nM |  | 
16 | AACGUAUACAGAAGGAGCGUGAUUUAUAUUUCUUUAACAUAUACAUGAGGAUCACCCAUGUCACAGGUAGGUCGCUGUAUUCGUA [JR_ExcArginiB_Sub023] | 33.6 nM | 40.1 nM | 32.6 nM | 31.1 nM | 30.8 nM
17 | GCACCAGGUACGGAUACCAGACGUUGCCAAUUGGGUGCACAUGAGGAUCACCCAUGUUCUGUCCCUUGGCAGCCGUACCUGGUGC [EThB NP+V+V2 #5] | 10.2 nM | 13.5 nM | 73.2 nM | 10.1 nM | 9.12 nM
18 | ACAUGAGGAUCACCCAUGUACGAGUCGGAAGGAGCGGCAAUUAAGCCAGGUAGGUCGCCGGCAGAGAGUGUCAUUGUAAGUAUGA [Same State - Arginine A / A] | 14.2 nM | 26.8 nM | 12.3 nM | 14.8 nM | 14 nM
19 | AAGGUGAUCCGUGAUACCAGCUCAACAUGAGGAUCACCCAUGUAAGCCUGGAAACAGGCGAGCCCUUGGCAGCACGGUAAUAAUA [(M)'-(Theo1)-(Ms2)-(Theo2)-(M'')] | 12.6 nM | 14.5 nM |  |  | 12.6 nM

Row | Sequence | apparent KD of MS2 coat protein (input ligand: arginine 13.2 mM) | apparent KD of MS2 coat protein [1] | apparent KD of MS2 coat protein [2] | apparent KD of MS2 coat protein (input ligand: none) | apparent KD of MS2 coat protein [3]
20 | AUACCACCUUCGGCCGCCACUAUGUAUGGGUUCCCAACGUUGAAGGACAUGAGGAUCACCCAUGUUAGGACCGGGAAAAGUGCCU [theeternabot_exclusion_MS2_Trp_B_17] | 45.3 nM | 106 nM | 103 nM |  | 
21 | CGCUACAUAGCGGCCGCCACUGUCAUGGCUACGAUAGGUCACUCGUACAUGAGGAUCACCCAUGUCAGGACCGGGCUAUCCUCGC [theeternabot_exclusion_MS2_Trp_B_20] | 64.9 nM | 112 nM | 112 nM |  | 
22 | AACGUAUACAGAAGGAGCGUGAAUUAUAUUACUCAUUCUUAUACAUGAGGAUCACCCAUGUCACAGGUAGGUCGCUGUAUUCGUA [JR_ExcArginiB_Sub019] | 81.9 nM | 91.9 nM | 111 nM | 106 nM | 81.6 nM
23 | AAUCGCCUGGGUCGCAUCCUUGCUCCGGAUACCAGUCAAUAGUUGGACCCUUGGCAGCCGUAGACAUGAGGAUCACCCAUGUAUA [theeternabot_exclusion_MS2_Theo_A_42] | 30.2 nM | 85.5 nM |  |  | 55.9 nM
24 | CAGACUAGGGCGGCCGCCACUGUGGCUACGGUACAUGAGGAUCACCCAUGUUUGUGGUUGAUCUACAGGACCGGGCCCUGGCACG [Orbera] | 9.05 nM | 588 nM | 200 nM | 305 nM | 273 nM
25 | CGCACAGAGAAUGAUACCAGCGAGGAAGCGACAUGAGGAUCACCCAUGUGCGAAUGAUCCCGCCCUUGGCAGCGUAAGUGAUCCC [ss-theoB-?] | 59.3 nM | 154 nM |  |  | 62.6 nM
26 | GCAUCCUAGUCGGCCGCCACUGCAGUAGCACCUGCUACAUGGAAACAUGAGGAUCACCCAUGUAGCAGGACCGGGACUAGGAUGC [(Trp1)-(TM)''-(TM)'-(Ms2)-(Trp2)_Design8] | 44.3 nM | 733 nM | 909 nM | 276 nM | 236 nM
27 | AAUAAGAUGAGGAUCACCCAUCUAAAAGAUACCAGAGUGAUGAUCCUCCCUUGGCAGCUUAACGCUGAUUGAUUACAAUCAGCGA | 21.7 nM | 124 nM | 121 nM | 47.2 nM | 25.3 nM
28 | GGGCCCGGGCGCGAGCCCGGGCCCAUUGAUACCAGUGAUAGAGAGCGCCCUUGGCAGCGAAUCCUAACAUGAGGAUCACCCAUGU [5.K] | 37.5 nM | 95.2 nM | 83.9 nM | 46.3 nM | 56.6 nM
29 | CAUUAAUUACGAAGGAGCGUCGAAAAUGGGUAAACAUGAGGAUCACCCAUGUAAAGGGAACGACAGGUAGGUCGCGUAAUUAAUG [AstromonsSSArgB#2] | 132 nM | 169 nM | 230 nM | 170 nM | 158 nM
30 | AAAAUCCUAUCUGAGGAUCACCCAGGUGAAGGAGCGCCCGAAAGGGCAGGUAGGUCGCACCUGAGGAUCACCCUGGUAACCUAAA [ArgEX 10 #DoubleMS2 #OpenEnded #AlternativeMS2] | 85.7 nM | 105 nM | 123 nM | 102 nM | 88.5 nM
31 | UACCGGUGACUCGAUACCAGUCCUCUAAAAUACAUGAGGAUCACCCAUGUAACCUUCCCAGACCCUUGGCAGCGACACAUGGAUA [theeternabot_sameState_MS2_Theo_B_49] | 97.7 nM | 176 nM |  |  | 147 nM
32 | GACCGAUUAUAGUGCGAUUGUCUUGUGGAAGGAGCGCAGAGGACUGCAGGUAGGUCGCCACAUGAGGAUCACCCAUGUCAGGAUU [Reinorlaan] | 39.8 nM | 45.1 nM | 64.8 nM | 46 nM | 40.5 nM
33 | GGUGGCUGGACUGAUACCAGCCACCACCGAUAGACCACAUGAGGAUCACCCAUGUUGGGUGGCCCUUGGCAGCAGUCCAGCUGCC [#1 Same State - Theophylline B Attempt #10 (HarryS)] | 152 nM | 374 nM | 2990 nM | 607 nM | 873 nM
34 | AGCACAUGAGGAUCACCCAUGUGUCGGUACCGAGGACCGGUACGGCCGCCACUCGCAGGACAUGAGGAUCACCCAUGUGCCGCCG [SSTA DOUBLE!!! :-D #8] | 14 nM | 36.1 nM | 35.9 nM |  | 
35 | GAUGAACUAUUUGAUACCAGACCACAUGAGGAUCACCCAUGUGAGUUUCGUCCUUAGCCGGUCCCUUGGCAGCAAAUAGUUUAUC [#27 Exclusion-TheophyllineB] | 19.3 nM | 24.1 nM |  |  | 16.7 nM
36 | AGAGUCUAGUCGGCCGCCACUCAUGUCCAAUGGACAUGAGGAUCACCCAUGUACCAAAGGUACAUGAGGACCGGGACUGGACUCA [Omei Tryp B SS C v4] | 27.2 nM | 209 nM | 83.3 nM |  | 
37 | UCGUUUGAGGCGGCCGCCACUGGUCUCAUGGUCAACAUGAGGAUCACCCAUGUAUCUUAGUUAAGCAGGACCGGGCCUCGAGCGA [#18 Exclusion Tryptophan B] | 38.9 nM | 105 nM | 95.6 nM | 72.7 nM | 32.3 nM

Reference: the supplement of paper PMC9170038
